This passage reports Kd results from article PMC5664571.

The target of the data set is E. coli RNA polymerase holoenzyme saturated with sigma70 (Escherichia coli) (UniProt P0A7Z4+P0A8V2+P0A8T7+P0A800+P00579). Kind of data set: EMSA. The note with it: EMSA: 10 nM DNA, 0-170 nM RNAP, binding buffer (5X: 750 mM KCl, 0.5 mM DTT, 0.5 mM EDTA, 50 mM Tris pH 7.4; 1X = 150 mM KCl, 0.1 mM DTT, 0.1 mM EDTA, 10 mM …).
A word on the Kd: it is a measure of binding affinity in units of concentration. Substance “CCAGGATACATAGATTACCACAACTCCGAGCCCTTCCACCACCTATGGAAAATTTTTTTAAAAAAAAAACTTGACAGCTAGCTCAGTCCTAGGTACTGTGCTAGCAGCTGTCACCGGATGTGCTTTCCGGTCTGATGAGTCCGTGAGGACGAAACAGCCTCTACAAATAATTTTGTTTAATAAGTCCAATAGTTTATAAGGAAAGAATTACCTATGCGTAAAGGCGAAGAGCTGTTCACTGGTGTCGTCCC (double strand) [J23102 + UP]” had a Kd of 44.8 nM. Substance J23109 registered a Kd of 46 nM. “CCAGGATACATAGATTACCACAACTCCGAGCCCTTCCACCACCTATATTTGCTGCTCGTAAAAAAAAAACCTGACAGCTAGCTCAGTCCTAGGTATAATGCTAGCAGCTGTCACCGGATGTGCTTTCCGGTCTGATGAGTCCGTGAGGACGAAACAGCCTCTACAAATAATTTTGTTTAATAAGTCCAATAGTTTATAAGGAAAGAATTACCTATGCGTAAAGGCGAAGAGCTGTTCACTGGTGTCGTCCC (double strand) [J23108 + 1/2UP]” showed a Kd of 22 nM. The value for J23115 + 1/2UP was 51.7 nM; that for J23112 + UP was 12.6 nM; that for J23112 + 1/2UP was 68.2 nM. The substance J23115 returned a Kd of 55 nM.

Substance “CCAGGATACATAGATTACCACAACTCCGAGCCCTTCCACCACCTATGGAAAATTTTTTTAAAAAAAAAACCTGACAGCTAGCTCAGTCCTAGGTATAATGCTAGCAGCTGTCACCGGATGTGCTTTCCGGTCTGATGAGTCCGTGAGGACGAAACAGCCTCTACAAATAATTTTGTTTAATAAGTCCAATAGTTTATAAGGAAAGAATTACCTATGCGTAAAGGCGAAGAGCTGTTCACTGGTGTCGTCCC (double strand) [J23108 + UP]” returned a Kd of 31.4 nM. The value for “CCAGGATACATAGATTACCACAACTCCGAGCCCTTCCACCACCTATATTTGCTGCTCGTAAAAAAAAAACTTGACAGCTAGCTCAGTCCTAGGTATAATGCTAGCAGCTGTCACCGGATGTGCTTTCCGGTCTGATGAGTCCGTGAGGACGAAACAGCCTCTACAAATAATTTTGTTTAATAAGTCCAATAGTTTATAAGGAAAGAATTACCTATGCGTAAAGGCGAAGAGCTGTTCACTGGTGTCGTCCC (double strand) [J23119 + 1/2UP]” was 21 nM; that for “CCAGGATACATAGATTACCACAACTCCGAGCCCTTCCACCACCTATGGAAAATTTTTTTAAAAAAAAAACTTGACAGCTAGCTCAGTCCTAGGTATAATGCTAGCAGCTGTCACCGGATGTGCTTTCCGGTCTGATGAGTCCGTGAGGACGAAACAGCCTCTACAAATAATTTTGTTTAATAAGTCCAATAGTTTATAAGGAAAGAATTACCTATGCGTAAAGGCGAAGAGCTGTTCACTGGTGTCGTCCC (double strand) [J23119 + UP]” was 42 nM; that for J23112 was 50.8 nM. Substance J23109 + UP displayed a Kd of 7.44 nM. Take J23115 + UP: the Kd was 38.1 nM. With “CCAGGATACATAGATTACCACAACTCCGAGCCCTTCCACCACCTATATTTGCTGCTCGTAAAAAAAAAACTTGACAGCTAGCTCAGTCCTAGGTACTGTGCTAGCAGCTGTCACCGGATGTGCTTTCCGGTCTGATGAGTCCGTGAGGACGAAACAGCCTCTACAAATAATTTTGTTTAATAAGTCCAATAGTTTATAAGGAAAGAATTACCTATGCGTAAAGGCGAAGAGCTGTTCACTGGTGTCGTCCC (double strand) [J23102 + 1/2UP]” the figure was 45.5 nM; with J23109 + 1/2UP, 64.8 nM.
